# Measurements as given in article PMC10250246 (Nucleic Acids Research, 2023).
# T1: Spt6 (239-1451) (S. cerevisiae, UniProt P23615 239-1451)
# T1 sequence (looked up): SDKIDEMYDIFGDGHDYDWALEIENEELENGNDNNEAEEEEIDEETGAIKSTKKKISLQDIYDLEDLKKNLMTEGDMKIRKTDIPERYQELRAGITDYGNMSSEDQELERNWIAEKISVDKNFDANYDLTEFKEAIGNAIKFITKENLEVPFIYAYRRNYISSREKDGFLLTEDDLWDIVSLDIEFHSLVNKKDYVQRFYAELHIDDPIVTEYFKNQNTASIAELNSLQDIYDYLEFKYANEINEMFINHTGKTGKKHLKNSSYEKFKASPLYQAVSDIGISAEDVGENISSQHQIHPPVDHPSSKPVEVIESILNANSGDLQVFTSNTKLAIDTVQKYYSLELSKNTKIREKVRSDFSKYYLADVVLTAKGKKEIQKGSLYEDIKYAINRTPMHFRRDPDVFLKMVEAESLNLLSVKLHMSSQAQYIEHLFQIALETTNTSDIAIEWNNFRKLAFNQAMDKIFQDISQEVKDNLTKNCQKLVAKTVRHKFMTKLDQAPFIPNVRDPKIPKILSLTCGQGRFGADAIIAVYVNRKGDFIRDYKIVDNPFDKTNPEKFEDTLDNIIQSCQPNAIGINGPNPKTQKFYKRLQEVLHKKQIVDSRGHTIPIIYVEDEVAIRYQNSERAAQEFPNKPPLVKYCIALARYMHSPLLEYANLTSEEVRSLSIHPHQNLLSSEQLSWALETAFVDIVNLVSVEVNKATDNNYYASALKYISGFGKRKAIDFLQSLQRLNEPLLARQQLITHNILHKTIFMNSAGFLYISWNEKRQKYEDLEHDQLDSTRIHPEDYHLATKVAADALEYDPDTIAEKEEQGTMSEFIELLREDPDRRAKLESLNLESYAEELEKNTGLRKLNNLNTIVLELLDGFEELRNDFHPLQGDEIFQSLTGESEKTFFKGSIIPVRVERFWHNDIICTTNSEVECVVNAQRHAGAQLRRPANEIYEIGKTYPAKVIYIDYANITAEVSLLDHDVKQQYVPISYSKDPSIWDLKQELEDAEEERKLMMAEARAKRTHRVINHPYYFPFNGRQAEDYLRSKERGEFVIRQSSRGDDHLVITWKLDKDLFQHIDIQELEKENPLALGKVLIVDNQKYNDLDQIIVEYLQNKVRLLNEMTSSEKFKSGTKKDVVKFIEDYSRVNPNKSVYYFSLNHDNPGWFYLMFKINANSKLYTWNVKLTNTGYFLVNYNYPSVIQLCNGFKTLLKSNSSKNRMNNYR
# T2: 10xHis-mRuby2-Spt6 (239-1451) (S. cerevisiae, UniProt P23615 239-1451)
# T2 sequence (looked up): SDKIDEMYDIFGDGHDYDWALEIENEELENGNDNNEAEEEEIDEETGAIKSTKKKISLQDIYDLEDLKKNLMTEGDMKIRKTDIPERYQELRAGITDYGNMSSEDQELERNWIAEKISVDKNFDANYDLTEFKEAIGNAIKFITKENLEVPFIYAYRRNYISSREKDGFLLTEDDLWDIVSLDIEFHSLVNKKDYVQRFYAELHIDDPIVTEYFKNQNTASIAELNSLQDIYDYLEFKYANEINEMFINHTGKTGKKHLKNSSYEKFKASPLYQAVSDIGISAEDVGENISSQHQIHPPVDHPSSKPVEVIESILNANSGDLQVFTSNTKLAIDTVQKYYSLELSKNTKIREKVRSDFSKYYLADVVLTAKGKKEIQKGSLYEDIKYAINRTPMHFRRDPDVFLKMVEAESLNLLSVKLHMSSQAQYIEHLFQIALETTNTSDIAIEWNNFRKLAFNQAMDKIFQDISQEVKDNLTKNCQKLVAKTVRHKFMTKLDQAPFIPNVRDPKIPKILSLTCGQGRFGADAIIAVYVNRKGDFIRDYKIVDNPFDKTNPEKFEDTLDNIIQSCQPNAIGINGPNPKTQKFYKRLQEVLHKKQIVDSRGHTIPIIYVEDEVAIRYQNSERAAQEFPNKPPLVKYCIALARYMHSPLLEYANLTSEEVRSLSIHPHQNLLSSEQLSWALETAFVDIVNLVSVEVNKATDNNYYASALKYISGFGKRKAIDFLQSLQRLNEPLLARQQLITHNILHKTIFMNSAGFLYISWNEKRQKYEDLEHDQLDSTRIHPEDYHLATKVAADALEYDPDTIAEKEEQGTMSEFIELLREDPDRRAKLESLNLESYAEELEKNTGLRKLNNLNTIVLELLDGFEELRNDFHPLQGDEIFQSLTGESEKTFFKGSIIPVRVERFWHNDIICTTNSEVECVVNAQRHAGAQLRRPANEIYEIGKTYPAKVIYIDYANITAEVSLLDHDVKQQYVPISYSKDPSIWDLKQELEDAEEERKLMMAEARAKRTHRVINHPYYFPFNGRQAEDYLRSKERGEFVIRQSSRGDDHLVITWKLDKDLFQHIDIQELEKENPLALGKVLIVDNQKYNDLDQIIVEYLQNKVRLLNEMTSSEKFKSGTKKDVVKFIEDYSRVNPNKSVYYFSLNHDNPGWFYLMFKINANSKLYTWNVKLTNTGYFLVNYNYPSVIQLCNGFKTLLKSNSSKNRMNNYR
# What was measured:
# Spt6 (239-1451) = biological target: T1, Spt6 (239-1451); assay: fluorescence polarisation
# [1] = biological target: T2, 10xHis-mRuby2-Spt6 (239-1451); assay: native gel or EMSA
Kd (Spt6 (239-1451)) [nM],Kd [1] [nM],binding result [1],Binder
770,~320,–,"10xHis-mClover-Cdc73 (natural protein, S. cerevisiae, UniProt Q06697 1-393, looked up) MANSLDRLREHLKNGDKLVLKNNEGQSTDDITKATMVETLSSDGSTQDSFPLNEETEIEIDGSLVQLRIIVHCWMNKDSSAADYLADCQNKQLTNVSFLQRTDLINWLSGNTESSQYLKAPGQKGETSDKVDIENKTLAGELSTVKSTTSASLENDSEVSDPVVVETMKHERILVDHNSALRGAKPINFGYLIKDAELKLVQSIKGSLRGSKLPPGHKGAHGRISKTNGSSGGPRKDPIILIPSAASSILTVANIKQFLLESKYVNPRNLPSVPNGLVNIEKNFERISRPIRFIIVDNTRMFTKPEYWDRVVAIFTTGHTWQFNNYQWNSPQELFQRCKGYYFHFAGDSVPQHVQQWNVEKVELDKNKRFKDVEVVRYFWHSLEKELISRGYR"
–,–,binds,"10xHis-mClover-Cdc73 W321A (natural protein, S. cerevisiae, UniProt Q06697 1-393, looked up) MANSLDRLREHLKNGDKLVLKNNEGQSTDDITKATMVETLSSDGSTQDSFPLNEETEIEIDGSLVQLRIIVHCWMNKDSSAADYLADCQNKQLTNVSFLQRTDLINWLSGNTESSQYLKAPGQKGETSDKVDIENKTLAGELSTVKSTTSASLENDSEVSDPVVVETMKHERILVDHNSALRGAKPINFGYLIKDAELKLVQSIKGSLRGSKLPPGHKGAHGRISKTNGSSGGPRKDPIILIPSAASSILTVANIKQFLLESKYVNPRNLPSVPNGLVNIEKNFERISRPIRFIIVDNTRMFTKPEYWDRVVAIFTTGHTAQFNNYQWNSPQELFQRCKGYYFHFAGDSVPQHVQQWNVEKVELDKNKRFKDVEVVRYFWHSLEKELISRGYR"
